Measured values from article PMC7560827, “Immunodominant proteins P1 and P40/P90 from human pathogen Mycoplasma pneumoniae” (Nature Communications, 2020).

T1: P90N polypeptide (Ala446 to the C-end of P40/P90N) (Mycoplasma pneumoniae, UniProt Q50341 446-1003)
T1 construct: source: E. coli B834 (DE3), cleavage product in purified P40/P90N samples
T1 sequence: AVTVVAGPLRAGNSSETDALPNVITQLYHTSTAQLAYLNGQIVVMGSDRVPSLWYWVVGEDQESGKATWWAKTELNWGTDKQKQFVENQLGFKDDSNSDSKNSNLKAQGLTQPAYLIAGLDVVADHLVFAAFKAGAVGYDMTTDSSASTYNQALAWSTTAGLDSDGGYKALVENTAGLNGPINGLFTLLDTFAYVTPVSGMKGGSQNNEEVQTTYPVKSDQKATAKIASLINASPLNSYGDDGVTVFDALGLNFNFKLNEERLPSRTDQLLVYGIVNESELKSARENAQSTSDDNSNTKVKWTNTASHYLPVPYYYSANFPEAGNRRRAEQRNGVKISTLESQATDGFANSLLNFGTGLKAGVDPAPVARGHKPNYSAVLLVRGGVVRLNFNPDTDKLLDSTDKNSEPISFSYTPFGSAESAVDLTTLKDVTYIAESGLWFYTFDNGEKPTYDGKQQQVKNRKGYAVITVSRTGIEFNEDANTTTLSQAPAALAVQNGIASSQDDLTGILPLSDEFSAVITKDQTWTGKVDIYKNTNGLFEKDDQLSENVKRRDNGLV

B1: P1 extracellular region (residues Thr29-Asp1521) (domain or fragment)
chain: TVVGHFTSTTTTLKRQQFSYTRPDEVALRHTNAINPRLTPWTYRNTSFSSLPLTGENPGAWALVRDNSAKGITAGSGSQQTTYDPTRTEAALTASTTFALRRYDLAGRALYDLDFSKLNPQTPTRDQTGQITFNPFGGFGLSGAAPQQWNEVKNKVPVEVAQDPSNPYRFAVLLVPRSVVYYEQLQRGLGLPQQRTESGQNTSTTGAMFGLKVKNAEADTAKSNEKLQGAEATGSSTTSGSGQSTQRGGSSGDTKVKALKIEVKKKSDSEDNGQLQLEKNDLANAPIKRSEESGQSVQLKADDFGTALSSSGSGGNSNPGSPTPWRPWLATEQIHKDLPKWSASILILYDAPYARNRTAIDRVDHLDPKAMTANYPPSWRTPKWNHHGLWDWKARDVLLQTTGFFNPRRHPEWFDGGQTVADNEKTGFDVDNSENTKQGFQKEADSDKSAPIALPFEAYFANIGNLTWFGQALLVFGGNGHVTKSAHTAPLSIGVFRVRYNATGTSATVTGWPYALLFSGMVNKQTDGLKDLPFNNNRWFEYVPRMAVAGAKFVGRELVLAGTITMGDTATVPRLLYDELESNLNLVAQGQGLLREDLQLFTPYGWANRPDLPIGAWSSSSSSSHNAPYYFHNNPDWQDRPIQNVVDAFIKPWEDKNGKDDAKYIYPYRYSGMWAWQVYNWSNKLTDQPLSADFVNENAYQPNSLFAAILNPELLAALPDKVKYGKENEFAANEYERFNQKLTVAPTQGTNWSHFSPTLSRFSTGFNLVGSVLDQVLDYVPWIGNGYRYGNNHRGVDDITAPQTSAGSSSGISTNTSGSRSFLPTFSNIGVGLKANVQATLGGSQTMITGGSPRRTLDQANLQLWTGAGWRNDKASSGQSDENHTKFTSATGMDQQGQSGTSAGNPDSLKQDNISKSGDSLTTQDGNAIDQQEATNYTNLPPNLTPTADWPNALSFTNKNNAQRAQLFLRGLLGSIPVLVNRSGSDSNKFQATDQKWSYTDLHSDQTKLNLPAYGEVNGLLNPALVETYFGNTRAGGSGSNTTSSPGIGFKIPEQNNDSKATLITPGLAWTPQDVGNLVVSGTTVSFQLGGWLVTFTDFVKPRAGYLGLQLTGLDASDATQRALIWAPRPWAAFRGSWVNRLGRVESVWDLKGVWADQAQSDSQGSTTTATRNALPEHPNALAFQVSVVEASAYKPNTSSGQTQSTNSSPYLHLVKPKKVTQSDKLDDDLKNLLDPNQVRTKLRQSFGTDHSTQPQPQSLKTTTPVFGTSSGNLSSVLSGGGAGGGSSGSGQSGVDLSPVEKVSGWLVGQLPSTSDGNTSSTNNLAPNTNTGNDVVGVGRLSESNAAKMNDDVDGIVRTPLAELLDGEGQTADTGPQSVKFKSPDQIDFNRLFTHPVTDLFDPVTMLVYDQYIPLFIDIPASVNPKMVRLKVLSFDTNEQSLGLRLEFFKPDQDTQPNNNVQVNPNNGDFLPLLTASSQGPQTLFSPFNQWPD
notes: source: E. coli B834 (DE3), purified (HisTrap, Superdex 200)
B2: P40 polypeptide (from the N-end of P40/P90N to Arg445) (domain or fragment)
chain: SLANTYLLQDHNTLTPYTPFTTPLNGGLDVVRAAHLHPSYELVDWKRVGDTKLVALVRSALVRVKFQDTTSSDQSNTNQNALSFDTQESQKALNGSQSGSSDTSGSNSQDFASYVLIFKAAPRATWVFERKIKLALPYVKQESQGSGDQGSNGKGSLYKTLQDLLVEQPVTPYTPNAGLARVNGVAQDTVHFGSGQESSWNSQRSQKGLKNNPGPKAVTGFKLDKGRAYRKLNESWPVYEPLDSTKEGKGKDESSWKNSEKTTAENDAPLVGMVGSGAAGSASSLQGNGSNSSGLKSLLRSAPVSVPPSSTSNQTLSLSNPAPVGPQAVVSQPAGGATAAVSVNRTASDTATFSKYLNTAQALHQMGVIVPGLEKWGGNNGTGVVASRQDATSTNLPHAAGASQTGLGTGSPREPALTATSQR
notes: source: E. coli B834 (DE3), cleavage product in purified P40/P90N samples

Legend:
Conditions in all cases: both partners purified
[1] = molecular target: P40/P90N (short construct of P40/P90, residues Ser23-Val1003) (Mycoplasma pneumoniae, UniProt Q50341 23-1003); assay: SEC
[2] = molecular target: P40/P90 long construct (residues 23-1114) (Mycoplasma pneumoniae, UniProt Q50341 23-1114); assay: SEC
[3] = molecular target: T1, P90N polypeptide (Ala446 to the C-end …); assay: SEC-MALS

| Binder | binding result [1] | binding result [2] | binding result [3] |
| --- | --- | --- | --- |
| B1 | binds | binds |  |
| B2 |  |  | binds |
